The format of data set [1] is physicochemical, Haloferax volcanii. On the procedure:
FIGS. 6A-6D. Effect of salt, solvent and temperature on Haloferax volcanii inorganic phyrophosphatase (HvPPA). A) HvPPA thermostability. HvPPA was incubated at 42° C. and 65° C. as indicated with enzyme at 0.093 mg/ml of buffer (20 mM Tris-Cl pH 8, 2.5 mM MgCl2 and 3 M NaCl). HvPPA was diluted to 0.28 μg per 100 μl buffer (with MgCl2 increased to 10 mM) and assayed by addition of 1 mM PPi substrate (10 min, RT). Activity is % relative to samples incubated on ice. B) HvPPA stability in 50% (v/v) solvent. HvPPA was incubated for 2 h (on ice) at 0.47 mg/ml buffer (20 mM Tris-Cl pH 8 and 2 M NaCl) supplemented with solvent as indicated. HvPPA was diluted to 2.4 μg per 100 μl buffer (20 mM Tris-Cl pH 8, 2.5 mM MgCl2 and 2 M NaCl) and assayed by addition of 50 μM PPi substrate (10 min, RT). Activity is % relative to samples incubated with no solvent. C) HvPPA activity in 25% (v/v) solvent. Reactions were 500 μl with 2.8 μg HvPPA, 1.5 M NaCl, 1.5 mM PPi, 10 mM MgCl2. Reaction occurred at 10 minutes at RT. D) HvPPA stability in salt. HvPPA was incubated for 2 h (on ice) at 0.3 mg per ml of buffer (20 mM Tris-Cl pH 8) supplemented with NaCl at the concentrations indicated. HvPPA was diluted to 0.87 μg per 100 μl reaction buffer as in FIG. 6B. Activity is % relative to samples incubated in buffer supplemented with 3M NaCl.

A short description of data set [2]: Coupled assay of ubiquitin-like protein adenylation. Format: biochemical, Haloferax volcanii. The note with it: UbaA and HvPPA with ATP and SAMP1, 2 M NaCl, 42° C. On the procedure:
FIGS. 7A-7B. on Haloferax volcanii inorganic phyrophosphatase (HvPPA) activity solvent and coupled adenylation assay at high temperature and low water activity. A) Schematic of the coupled assay. Adenylation of the ubiquitin-like SAMP by the E1-like enzyme (UbaA) was monitored by HvPPA mediated hydrolysis of the PPi (P2O7^4−) by-product to 2 Pi (2 moles HPO4^2−) at 50° C. B) Generation of Pi correlated with the addition of ATP, UbaA, HvPPA and SAMP1 to the assay buffer. ΔGG, C-terminal diglycine residue deletion.
UbaA-mediated hydrolysis of ATP to AMP and PPi in the presence of the ubiquitin-like SAMP1 was monitored by coupled assay with HvPPA. Proteins were buffer-exchanged with HEPES-salt buffer in Nanopure H2O prior to use. Reaction mixtures (500 μl total) containing 20 μM UbaA, 20 μM SAMP1, 0.5 μM HvPPA, 2.5 mM nucleotide, 2.5 mM MgCl2, 50 μM ZnCl2 in high-salt buffer (2 M NaCl and 50 mM HEPES in Nanopure H2O, pH 7.5) were incubated at 37-42° C. for 1 h. Nucleotides were ATP, AMP, ADP, AMP-PNP, CTP, GTP, TTP and UTP. Proteins were removed by Ultracel-3 centrifugal filtration prior to determining orthophosphate levels by malachite green assay modified as described above. Assay mixtures with nucleotide alone were used for individual background subtraction.

Data set [3] is described as follows: PPi assay: HvPPA-mediated hydrolysis of PPi to Pi (malachite green). It counts as biochemical, Haloferax volcanii. To be noted: 25° C.
Data set [4] addresses T1, HvPPA (Haloferax volcanii, UniProt D4GT97).
T1 construct: thrombin-cleavage site (linker between His6 and HvPPA) (N); made in house; host or cells: Haloferax volcanii H26-pJAM2920
T1 sequence (D4GT97 1-177): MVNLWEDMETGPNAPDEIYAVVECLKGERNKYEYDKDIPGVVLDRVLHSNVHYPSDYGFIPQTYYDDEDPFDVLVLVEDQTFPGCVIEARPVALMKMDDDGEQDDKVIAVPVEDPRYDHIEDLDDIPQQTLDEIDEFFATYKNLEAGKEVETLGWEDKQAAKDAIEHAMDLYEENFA
Briefly: Sodium fluoride-based inhibition of HvPPA. Format: biochemical.
Method: A) HvPPA (1.3 μg) was assayed in 1 ml reaction volume containing 1 mM PPi, 10 mM MgCl2, 3 M NaCl and 20 mM Tris-Cl buffer pH 7.5 supplemented with NaF as indicated. Reactions were monitored for 15 min at RT.
HvPPA-mediated hydrolysis of PPi to Pi was determined spectrophotometrically. Reagents were in nanopure water (Barnstead/Thermolyne Nanopure lab water system). Sodium pyrophosphate tetrabasic decahydrate (Sigma Aldrich) was used as a substrate. For kinetic measurements, reaction mixtures (500 μl total) contained 0.5-1 μg HvPPA and 1 mM PPi in high-salt buffer (3 M NaCl and 20 mM Tris-HCl, pH 8.5). Reactions were incubated at 42° C. for 1-3 min. Orthophosphate levels were determined by malachite green assay. Briefly, 2.5 ml of 14% (w/v) (NH4)2MoO4 and 0.2 ml of 11% (v/v) TWEEN 20 ® (Polyoxyethylene sorbitan monolaurate) were added into a 10-ml color reagent I (containing 1.67 ml conc. sulfuric acid, 8.33 ml nanopure H2O, and 12.22 mg malachite green). In triplicate, 50 μl of the color reagent was mixed with 200 μl of the reaction mixture and incubated at room temperature for 10 min. The formation of (MG^+)(H2PMo12O40) (where MG^+ represents ionized malachite green) was monitored at A630. A less sensitive malachite green assay was also used in which reaction aliquots (50 μl) were mixed with 250 μl color reagent II and 10 μl 1.5% (v/v) TWEEN 20 ® (Polyoxyethylene sorbitan monolaurate) in triplicate; product formation was immediately monitored at A650. Color reagent II was generated by mixing 1 volume of 4.2% (w/v) (NH4)2MoO4 in 5 N HCl with 3 volumes of 0.2% (w/v) malachite green; after 30 minutes, the solution was filtered with a 0.45 μm filter and stored at room temperature. Freeze-dried KH2PO4 was used as the standard. Assay mixtures with PPi minus HvPPA were used for individual background subtraction. All proteins used in this assay were buffer-exchanged with Tris-high-salt buffer in nanopure H2O prior to use. All experiments were performed in triplicate and the mean±standard deviation (S.D.) was calculated.

B1: HvPPA: Class A type inorganic pyrophosphatase from Haloferax volcanii, amino acid sequence of SEQ ID NO: 2 (protein, listed as Haloferax volcanii)
chain: MVNLWEDMETGPNAPDEIYAVVECLKGERNKYEYDKDIPGVVLDRVLHSNVHYPSDYGFIPQTYYDDEDPFDVLVLVEDQTFPGCVIEARPVALMKMDDDGEQDDKVIAVPVEDPRYDHIEDLDDIPQQTLDEIDEFFATYKNLEAGKEVETLGWEDKQAAKDAIEHAMDLYEENFA
On to B1, for which the “stability when stored in salt” value in data set [1] is “more stable”. The molecule further had an activity remained in data set [1] (after 2 h at 42° C., relative to samples on ice) of 82%. The “Thermal inactivation (half-life)” value in data set [1] (buffer, pH 8) came to 2 h. Besides, in data set [2], the “Pi detected in coupled adenylation assay” value was “Significant levels of Pi were detected”. Further, the Vmax in data set [3] was 53 U · mg^−1 (25° C.). The “Hill coefficient(s) (Mg^2+)” value in data set [3] (Mg^2+) amounted to 2.62. Also, the “Hill coefficient(s) (PPi)” value in data set [3] (PPi) is given as 1.4 (PPi, 25° C.). Besides, the Inhibitors result in data set [4] was “NaF”.

The values above are taken from patent US11466260B2, “Thermostable haloarchaeal inorganic pyrophosphatase” (UNIVERSITY OF FLORIDA RESEARCH FOUNDATION, INCORPORATED, priority 2015, dated 2022).
